The text below walks through data of patent US6416738.

For one experiment, the target named is Streptavidin (UniProt P22629). The experiment in a line: 20 ug radiolabeled protein with 400 ul streptavidin-agarose beads, spun and washed, counted.
The target in experiment [1] is NR-LU-10 antigen on LS-180 tumor cells (human) (UniProt P16422). As to the kind of experiment: cell binding, percent of native NR-LU-10 (LS-180 cells as described for Table 2).
In experiment [2] the target is NR-LU-10 antigen (approximately 40 kilodalton glycoprotein antigen expressed on most carcinomas) (human) (UniProt P16422). The experiment in a line: ELISA, percent of native NR-LU-10 (thiol biotinylation).
Chain of NR-LU-10 antigen (approximately 40 kilodalton glycoprotein antigen expressed on most carcinomas) (human) (P16422 24-314): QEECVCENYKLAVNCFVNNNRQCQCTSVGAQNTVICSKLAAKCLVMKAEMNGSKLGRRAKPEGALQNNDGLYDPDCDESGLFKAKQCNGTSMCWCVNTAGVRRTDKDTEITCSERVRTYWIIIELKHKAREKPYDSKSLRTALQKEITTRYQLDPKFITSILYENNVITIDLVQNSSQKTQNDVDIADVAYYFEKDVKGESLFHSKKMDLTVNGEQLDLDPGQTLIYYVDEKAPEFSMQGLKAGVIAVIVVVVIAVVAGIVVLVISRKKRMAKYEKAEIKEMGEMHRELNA
Experiment [3] has the same target. The experiment in a line: limiting antigen ELISA, percent of native NR-LU-10. For orientation: In an ELISA, binding on a coated surface is turned into a signal by an enzyme label.
Experiment [4] addresses Avidin (UniProt P02701). The experiment in a line: binding of radioiodinated biotinylated antibody to avidin-agarose.
In experiment [5] the target is Avidin (UniProt P02701). The experiment in a line: residual circulating radiolabeled antibody after avidin injection in mice, examined in vitro on immobilized biotin.
Chain of Avidin (P02701 25-152 limits assumed): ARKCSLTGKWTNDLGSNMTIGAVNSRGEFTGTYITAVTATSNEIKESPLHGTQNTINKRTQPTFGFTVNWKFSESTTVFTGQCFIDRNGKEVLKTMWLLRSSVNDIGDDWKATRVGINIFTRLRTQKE
Experiment [6] has as its target NR-LU-10 antigen on LS-180 tumor cells (human) (UniProt P16422). As to the kind of experiment: binding to LS-180 tumor cells at antigen excess, percent of native NR-LU-10.
Experiment [7] has as its target Biotinylated NR-LU-10 (thiol). As to the kind of experiment: cell-based or functional assay.
Experiment [8] deals with Biotinylated NR-LU-10 (lysine). As to the kind of experiment: cell-based or functional assay.

Chain of NR-LU-10 antigen on LS-180 tumor cells (human) (P16422 24-314): as the sequence (P16422 24-314) above
Chain of Streptavidin (P22629 37-163 limits assumed): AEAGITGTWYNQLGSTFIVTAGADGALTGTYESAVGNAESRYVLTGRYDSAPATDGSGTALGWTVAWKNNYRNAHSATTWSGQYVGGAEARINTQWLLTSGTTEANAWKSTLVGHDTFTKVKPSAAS

“Biotinylated human asialoorosomucoid (from UniProt P02763 19-201)”: in the experiment with Streptavidin, the % radioactivity in Pellet (bound to streptavidin-agarose) was determined as 90% and the % radioactivity in Supernatant (not bound to streptavidin-agarose) amounted to 10%. “Biotinylated human orosomucoid, PIP-125-labeled (from UniProt P02763 19-201)”: in the experiment with Streptavidin, the % radioactivity in Pellet (bound to streptavidin-agarose) is 92% and the % radioactivity in Supernatant (not bound to streptavidin-agarose) was 7.7%. In [1], “Biotinylated NR-LU-10 (thiol), molar offering 100:1, measured 6.1 biotins/Ab (antibody)” showed an Immunoassessment (%) Cell Binding of 100%. Besides, the Immunoassessment (%) ELISA, immunoreactivity as compared to native antibody in [2] worked out at 95%.

On to “Biotinylated NR-LU-10 (thiol), molar offering 10:1, measured 4.7 biotins/Ab (antibody)”, for which the Immunoassessment (%) ELISA, immunoreactivity as compared to native antibody in experiment [2] was 114%.

With “Biotinylated NR-LU-10 (lysine), molar offering 5:1, measured 3.4 biotins/Ab (antibody)”, the Immunoassessment (%) ELISA, immunoreactivity as compared to native antibody in experiment [3] is 86%.

Substance “Biotinylated NR-LU-10 (thiol) (antibody)” showed a % specific binding to immobilized avidin-agarose with Avidin [4] of 98%. Besides, in the experiment with Avidin [5], the % of biotinylated antibody complexed with avidin worked out at 85%. In the case of “Biotinylated NR-LU-10 (lysine), molar offering 40:1, measured 23.1 biotins/Ab (antibody)”, the Immunoassessment (%) ELISA, immunoreactivity as compared to native antibody in experiment [3] was found to be 27%. As for “Biotinylated NR-LU-10 (lysine), molar offering 20:1, measured 13.4 biotins/Ab (antibody)”, in [3], the Immunoassessment (%) ELISA, immunoreactivity as compared to native antibody was 36%. The substance also registered an Immunoassessment (%) Cell Binding in [6] of 106%. Consider “Biotinylated NR-LU-10 (lysine) (antibody)”, for which the % specific binding to immobilized avidin-agarose with Avidin [4] was 98%.

In experiment [1], “Biotinylated NR-LU-10 (thiol), molar offering 50:1, measured 6.5 biotins/Ab (antibody)” came in with an Immunoassessment (%) Cell Binding of 100%. Moreover, the Immunoassessment (%) ELISA, immunoreactivity as compared to native antibody in experiment [2] was 102%. For “Biotinylated NR-LU-10 (lysine), molar offering 10:1, measured 8.5 biotins/Ab (antibody)”, the Immunoassessment (%) ELISA, immunoreactivity as compared to native antibody in experiment [3] is 73%. The substance further returned an Immunoassessment (%) Cell Binding in [6] of 100%. For “Biotinylated NR-LU-10 (lysine), molar offering 13:1, measured 11.1 biotins/Ab (antibody)”, the Immunoassessment (%) ELISA, immunoreactivity as compared to native antibody in experiment [3] amounted to 69%. The substance further displayed an Immunoassessment (%) Cell Binding in experiment [6] of 102%. Avidin (from UniProt P02701 25-152) gave a circulating antibody level in mice after avidin administration (% of injected dose) in experiment [7] of 35. In experiment [8], this substance displayed a blood pool concentration of biotinylated antibody in mice after avidin administration of 10 fold.
